Data on 18 molecules can be found in US20260063625A1, “COMPOSITIONS FOR AND METHODS OF DETECTING FOOD TOXINS” (priority 2022, published 2026).

Where a chain is given by its changes, count along the chain named. Names may count otherwise.

B1: RiSxph: Saxiphilin of Ranitomeya imitator, Mimic poison frog, SEQ ID NO:6 (protein)
chain: MRRSSYAASQEMRMTLRVLLCLCLWALSSAAPNTRNVRWCVTSDTEEQKCNDLVTSCHVDEILLICVKKSSTEDCVRAISNGEADAISLDSKDVYKASLDPFNLKPIMTEAYSESEHTPCMRHRQSVLGGKIMKIGAFVPKCDEKGNYVPKQCHGSTGYCWCLNENGEEIEGTRTPPGNPGLTCENKANKPPCLKERQKLLSAKPSPAVFVPECDEKGNYRPQQSHVYSWCVDEYGEEVFGSRSFPGKPPKPCEASGETPCIKERNKVLSAAEPLLGAFVPDCDEKGYFSPLQSHGSTGYSWCVTKNGDEIKGTRTGPGQSPPTCEVPAPVTLHYAVAVVKKSSSFHLDQLKGKRSCHSAVGEAAGWVAPLNVLLKKKLLLWEEPEPKTIEKVASEIFSASCAPGAQEANLCEQCAGQEDKCTRGPGEPYYGDEGAFRCLREDKGDVAFVEDTALTGQYSDNFELLCPDNTRRPLSQYKICNFGRIPRHAVVTRSSGDKMKDITEYLLQAQKKECKLFSSTHGKDLLFEDTTSALIALPSAMDTFLFLGPDLFNGMKTLNGARPPQVNQQIRWCPQSKNEKKKCDDWSSVSGGAIKCTEPSSGLECIKMILKGEAEAVNLDIEHSYIALKCGLLPSVDEYRNKDDLIPCQIPGSEYSEFGSYRIVALVKKTDKDLTWNNLQGKKSCHTRAGDMIGWNIPVYLISKKTKNCDLGSYFSQSCAPGSPIDSNLCKLCIGDPQNPQANTKCSISDKEAYYGHEGAIRCLVEKGDVAFVPHTAIFENTDGKNPALWAKDLKSTDFELLCPDGSRAPVNDYKKCKLSGIANQIAITRPESVKDVVRIIQNQQSLYGRTGSQKDIFQMFSSSYGQNLLFSDRTQCLVEFDRMLDRDIMDDYFGKPFHKHLLRDNDCLPKSALASACSFHH
modifications: Ranitomeya imitator
B2: MaSxph: Saxiphilin of Mantella aurantiaca, Golden mantella, SEQ ID NO:3 (protein, listed as Mantella aurantiaca)
chain: MALTFQTALYFTIIGLSFVTSSARDVRWCVISDLEQKKCNDLVGSCKVSGITLVCVHRSSTENCMTAIRDEQADAMFLDSGDVYKASMSPYNLKPIIAESYSSHKECLKKRQEALGGANVLGQFVPQCDEKGSYQPQQCYGSTGHCWCVNAIGEEIVGTKTQPGQTQATCERHDQTKCLKDRQKALAKKMIGGFVPQCDEKGNFKPRQCHGSTGYCWCTNANGEKIAATNTPPQQSPPTCERHDLDSCHYAVAVVKKSSIFQFNQLKGKRSCHSGVSKTDGWKAPVSVLVDKNLLSWDRAAKESIEKAVSKFFSDSCIPGATETNLCNQCMGEGGKKCMSSHDEPYYGDHGAFRCLKEDKGDVAFLKNTVLSDTHSEDYELLCPDNTRKPLNKYKECNLGKVPADAVVTRKSGDKIKDINDFLLEAQKKHCQLFSSAHGKDLMFDDSTTQLSLLPPEVDVFFFLGVQWLNTMKTLTADVKPPSKNKVRWCTVNNLEKMKCDDWSAVSGGAIECTEASSPEHCIKQIVKGEADAVTLDVQYMYEALKCGLLPAVEEYHNKDDFGPCKTPGSEIKDFGAKRAVALVKKSNKDINWHNLKGKKSCHTGVGDQAGWIIPVGLISRQIDNCNIDSFFSESCAPGSDTTSNFCKLCIGDPSNPMANTKCSLSDKEAYHGNEGAIRCLVEKGDVAFVHHTAVFENTDGKNPAEWAANLKSEDFEILCLDGSRAPVSNYMTCRLSGVPPRAIVTREESVSDVVRILINQQSLFGRNGFEKDMFQMFSSNKGQNLLFNDGTQCLIEFDRQPRGIMEDYFGKPYYNAVYNTSKCVLPSELTSACTFKHC
B3: E540Q: RcSxph mutant E540Q (protein)
chain: MAPTFQTALFFTIISLSFAAPNAKQVRWCAISDLEQKKCNDLVGSCNVPDITLVCVLRSSTEDCMTAIKDGQADAMFLDSGEVYEASKDPYNLKPIIAEPYSSNRDLQKCLKERQQALAKKMIGHYIPQCDEKGNYQPQQCHGSTGHCWCVNAMGEKISGTNTPPGQTRATCERHELPKCLKERQVALGGDEKVLGRFVPQCDEKGNYEPQQFHGSTGYSWCVNAIGEEIAGTKTPPGKIPATCQKHDLVTTCHYAVAMVKKSSAFQFNQLKGKRSCHSGVSKTDGWKALVTVLVEKKLLSWDGPAKESIQRAMSKFFSVSCIPGATQTNLCKQCKGEEGKNCKNSHDEPYYGNYGAFRCLKEDMGDVAFLRSTALSDEHSEVYELLCPDNTRKPLNKYKECNLGTVPAGTVVTRKISDKTEDINNFLMEAQKRQCKLFSSAHGKDLMFDDSTLQLALLSSEVDAFLYLGVKLFHAMKALTGDAHLPSKNKVRWCTINKLEKMKCDDWSAVSGGAIACTEASCPKGCVKQILKGEADAVKLEVQYMYEALMCGLLPAVQEYHNKDDFGPCKTPGSPYTDFGTLRAVALVKKSNKDINWNNIKGKKSCHTGVGDIAGWVIPVSLIRRQNDNSDIDSFFGESCAPGSDTKSNLCKLCIGDPKNSAANTKCSLSDKEAYYGNQGAFRCLVEKGDVAFVPHTVVFENTDGKNPAVWAKNLKSEDFELLCLDGSRAPVSNYKSCKLSGIPPPAIVTREESISDVVRIVANQQSLYGRKGFEKDMFQLFSSNKGNNLLFNDNTQCLITFDRQPKDIMEDYFGKPYYTTVYGASRSAMSSELISACTIKHC
B4: D785A: RcSxph mutant D785A (protein)
chain: B3 chain with Q559E, D804A
B5: F784S: RcSxph mutant F784S (protein)
chain: B3 chain with Q559E, F803S
B6: Q787E: RcSxph mutant Q787E (protein)
chain: B3 chain with Q559E, Q806E
B7: F784L: RcSxph mutant F784L (protein)
chain: B3 chain with Q559E, F803L
B8: I782A/Y558A: RcSxph double mutant I782A/Y558A (protein)
chain: B3 chain with Q559E, Y577A, I801A
B9: F784C: RcSxph mutant F784C (protein)
chain: B3 chain with Q559E, F803C
B10: T563A: RcSxph mutant T563A (protein)
chain: B3 chain with Q559E, T582A
B11: D794N: RcSxph mutant D794N (protein)
chain: B3 chain with Q559E, D813N
B12: Q787A: RcSxph mutant Q787A (protein)
chain: B3 chain with Q559E, Q806A
B13: F784Y: RcSxph mutant F784Y (protein)
chain: B3 chain with Q559E, F803Y
B14: K789A: RcSxph mutant K789A (protein)
chain: B3 chain with Q559E, K808A
B15: Y795A: RcSxph mutant Y795A (protein)
chain: B3 chain with Q559E, Y814A
B16: Y558F: RcSxph mutant Y558F (protein)
chain: B3 chain with Q559E, Y577F
B17: F784A: RcSxph mutant F784A (protein)
chain: B3 chain with Q559E, F803A
B18: I782F: RcSxph mutant I782F (protein)
chain: B3 chain with Q559E, I801F

One experiment in a line: Fluorescence polarization (FP) binding to fluorescein labeled STX. The note with it: […]G = RT ln (Kd(XSxph)/Kd(RcSxph)); T = 298K. As for the experimental part: […]; Measurements were performed at 25° C. on a Synergy H1 microplate reader (BioTek) using the polarization filter setting (excitation 485 nm, emission 528 nm). […]. The dissociation constants were calculated using GraphPad Prism by fitting fluorescence millipolarization (mP=P·10^−3, where P is polarization) as a function of Sxph concentration using the equation: P={(Pbound−Pfree) [Sxph]/(Kd+[Sxph])}+Pfree, where P is the polarization measured at a given Sxph concentration, Pfree is the […], and Pbound is the maximum polarization of Sxph bound by F-STX (Rossi and Taylor, Hansen et al.).
For orientation: Polarisation of emitted light reports the rotation of a fluorescent probe.
As to B1, the “[…]G (kcal mol^−1) relative to RcSxph” value was -1.32 kcal/mol.
As for B2, the “[…]G (kcal mol^−1) relative to RcSxph” value was -1.73 kcal/mol.

Staying with this experiment, now noted: […]G = RT ln (KdSxph mutant/KdSxph); T = 298K.
With B3, the “[…]G (kcal mol^−1) relative to wild-type RcSxph” value amounted to 4.30 kcal/mol.
The same measure, in the same setting: with B4 the figure was 0.57 kcal/mol; with B5, 3.60 kcal/mol; with B6, -0.09 kcal/mol.
On to B7, for which the “[…]G (kcal mol^−1) relative to wild-type RcSxph” value came to 1.11 kcal/mol.
Still for that read-out and setting: the result for B8 reads -1.07 kcal/mol; that for B9, 3.15 kcal/mol.
Same read-out and setting: the result for B10 reads -0.20 kcal/mol.
The same measure, in the same setting: the result for B11 reads 3.60 kcal/mol; that for B12, 0.25 kcal/mol.
On to B13, for which the “[…]G (kcal mol^−1) relative to wild-type RcSxph” value amounted to 0.37 kcal/mol.
Same read-out and setting: the result for B14 reads -0.22 kcal/mol; that for B15, 0.08 kcal/mol.
For B16, the “[…]G (kcal mol^−1) relative to wild-type RcSxph” value is -0.10 kcal/mol.
The same measure, in the same setting: with B17 the figure was 2.71 kcal/mol; with B18, 0.46 kcal/mol.
